As a reminder, the Km is the concentration of substrate that gives half-maximal velocity. As usually defined, the kcat is the number of substrate molecules converted per active site and unit of time at saturation. Broadly, the kcat/Km is the second-order rate constant that governs catalysis at low substrate concentration.

Data set [1] concerns Peptide 11: DEAIYATVAGGKKK (version of peptide 5 used for the kinetic experiments).
The subject of data set [2] is Peptide 10: EDPIYVTLEGGKKK (version of peptide 2 used for the kinetic experiments).

With SYK as GST fusion protein, in data set [1], the Michaelis-Menten constant (Km) is more than 200 µM, the catalytic constant (kcat) is more than 0.1 s⁻¹ and the specificity constant (kcat/Km) came out at 560 M⁻¹ s⁻¹. In data set [2], the 2/5 kcat/Km ratio (peptide 2 against peptide 5) was found to be 1.8, the Km was more than 200 µM, the catalytic constant (kcat) was more than 2e-07 s⁻¹ and the specificity constant (kcat/Km) stood at 1080 M⁻¹ s⁻¹.

On to SRC as GST fusion protein, for which the figures for the kcat in data set [1] and in data set [2] were more than 2 s⁻¹ and more than 40 s⁻¹, respectively. Further, the results for the specificity constant (kcat/Km) in data set [1] and in data set [2] were 9500 M⁻¹ s⁻¹ and 17500 M⁻¹ s⁻¹, respectively.

The values are drawn from US20190302117.
